# The DeepSol protein solubility set
# Assay: soluble on expression in E. coli; label from the status in PepcDB or PDB records
row,Sequence,soluble on expression in E. coli
1,MSIHVNEANLTFHLQTDHTSYIFQIMKNGEAGQIYYGPRIHVQPTYQNLMSQEWRDATPSLNEENPNFQPATIKAEYASLGKGDFRQPAFQVTQANGSRITELTYDHYQLLTGKQRLANLPSTFDDTDDDAQTLVVSFNDRITGLALDLNYSIFPHQDVIVKSAKFTNPSSEKLVLNRALSSQLDLPDANYDLIQFSGTWARERHLYRHPLRPGMQSISSLRMASSHQQNPFMMLARPQTTDEQGAVFGFNLVYSGNFLDAIEVDQYSTSRILTGINPDEFGWNLAPQATFQTPEAILSYTSAGMNQLSQQMASFYQQHLVNPRFAHEERPVLINNWEATYFDFNEAKLMTIVNQAKRLGIEMFVLDDGWFGHRDDDTTSLGDWFVDQRKFPDGIEHFSQAVHQQGMKFGLWFEPEMVSVDSDLYQQHPDWLIHAPKSTPTPGRHQFVLDMARPEVVDYLFKLMSQMIESANLDYIKWDMNRYATEMFSSRLTSDQQLELPHRYILGVYQLYARLTQAYPNVLFESCASGGGRFDLGMMYYAPQAWTSDDTDAAERLLIQFGTSYGYPQAMMGAHVSAVPNDQMGRITSLKTRGAVAFFGDLGYELDITKMAPTELDQVKKQVAFYKCYRQLFQFGKFYRIDSPFVEDGNVTSWQVVSDDQKQAIAARYQLLNHPNAPYTRFYFKGLRPNQRYQINDDPSTYYGDELMNAGYFVPTILADGQESKDFYTQLFVVTAILEHHHHHH,soluble
2,GMSRGHCILAHGFESGPDALKVTALAEVAERLGWTHERPDFTDLDARRDLGQLGDVRGRLQRLLEIARAATEKGPVVLAGSSLGSYIAAQVSLQVPTRALFLMVPPTKMGPLPALDAAAVPISIVHAWHDELIPAADVIAWAQARSARLLLVDDGHRLGAHVQAASRAFAELLQSL,soluble
3,MSLDIADVAKRTGVPASTLRYYEKKGLLKSLAGRGQRRQFAADVADRLALIALGQAAGFSLDEVGAMLVDLQVDRQMLMAKADELDARIKRLQAMSKGLRHAAQCPEKDHLACPKFQQLMKLSAAGALGEKQARTKAFVTDEGHHHHHH,soluble
4,MGSDKIHHHHHHMETTKLGNLKLYGAGHAAGGAYHNVSIKGEGIVGEGLSAVGCRIYGTGLFLGKAETERLRVLGESECKGDLTAGKINIYGTMKVSGSLQFDRFNLKGQTEIGGNMTGESCDVKGKLSVIGDCETEMFHVTGCVDVSGLLNSGEIKLGLSHDINHVQEIGGTTITVKRRASFFSRKKGKLIADVIEGDRVYLENTEAAVVRGKEVIIGPGCSIGTIEYEYKCECDPHSQIKEKTKL,not soluble
5,STLKGALSVKFDVKCPADKFFSAFVEDTNRPFEKNGKTEIEAVDLVKKTMTIQMSGSEIQKYFKTLKGSIAVTPIGVGDGSHVVWTFHFEKVHKDIDDPHSIIDESVKYFKKLDEAILNFKE,soluble
6,MSLEVIKHDGPGRLGVIRLEPPVQTPALAGVDFTLSPFNSFFYPKDYKEYDFNLAPAIPLSYYTPDEIIKKAVKRLWEVDYSKFNAFYFPALKRTKHYEELFKIIEENDFDAIYIGNSKSMIKDYRGFVFTMRELREKFPNAVLITDLEPFFYPLAVYLGIDAFDIRSLKIYSYEGLGFTQFSPIIWDEPKEDPVEYAKKIIRLIRIAIHEGKLRYLVENFLPTSMNAGILRIADRENIEYLEKYTPVDDKTVVFISDYSMTRPEVYRWAKRVRERFEPPKDIELLLILPCSAKKPYSRSRSHTLYRSAVKEALGEKMHRVHELIVTSPYGVVPREWEWIAKYDIVVTGHWSEREVRLAGELLADVLEKYPDIPIIAHVEGGYREAVKLAMELSGRDVIFTAKGNSTTSRESLANLTKTLKEFDVREGHHHHHH,not soluble
7,MAHHHHHHMKRGREEDKEAEVGGSRVGPSDRRSAATSTEHKPRRLLKGADVGLPLHESVIEETCEVEETHAVLVRFPCFDFFRHVRVCERTRDLQPATSDDAAKASASLASALSDTTFRSGAPPVTSTHDTADVAFAPEAAVFIPGTLETDAPRLLLNGGTPHEMLFEGQWTEVTGEGVSVTNRAVVHLSAKTAGIAVSPAALPLNTSPIMSDAAKSPELARAAAESFPASASQATATPALPIASLLTHTLAGVTADEERRQRAEQQKGWTYDRIDVPSAVLVMHRVR,not soluble
